The numbers were not newly measured in article PMC4785862, which cites them from elsewhere.

Where two headings read alike, the source gives them in different places.

In general, Kd refers to the equilibrium constant for the complex coming apart.

The target in series [1] is IL-8 (Homo sapiens) (UniProt P10145).
The target is the same in series [2]. The source holds these as a separate data set.

Sequence of IL-8 (Homo sapiens) (P10145 28-99): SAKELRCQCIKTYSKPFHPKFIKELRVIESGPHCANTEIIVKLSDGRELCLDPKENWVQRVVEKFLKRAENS
Sequence of CXCR1 (P25024 whole entry): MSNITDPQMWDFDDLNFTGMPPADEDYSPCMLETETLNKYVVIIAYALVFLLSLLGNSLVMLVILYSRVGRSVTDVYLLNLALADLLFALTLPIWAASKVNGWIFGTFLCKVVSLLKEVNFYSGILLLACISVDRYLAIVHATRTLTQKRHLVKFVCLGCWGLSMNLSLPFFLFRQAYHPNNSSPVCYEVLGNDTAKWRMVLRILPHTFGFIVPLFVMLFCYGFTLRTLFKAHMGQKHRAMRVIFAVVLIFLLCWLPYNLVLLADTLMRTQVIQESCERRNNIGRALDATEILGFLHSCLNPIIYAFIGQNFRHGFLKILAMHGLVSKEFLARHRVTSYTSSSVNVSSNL
Sequence of CXCR2 (P25025 whole entry): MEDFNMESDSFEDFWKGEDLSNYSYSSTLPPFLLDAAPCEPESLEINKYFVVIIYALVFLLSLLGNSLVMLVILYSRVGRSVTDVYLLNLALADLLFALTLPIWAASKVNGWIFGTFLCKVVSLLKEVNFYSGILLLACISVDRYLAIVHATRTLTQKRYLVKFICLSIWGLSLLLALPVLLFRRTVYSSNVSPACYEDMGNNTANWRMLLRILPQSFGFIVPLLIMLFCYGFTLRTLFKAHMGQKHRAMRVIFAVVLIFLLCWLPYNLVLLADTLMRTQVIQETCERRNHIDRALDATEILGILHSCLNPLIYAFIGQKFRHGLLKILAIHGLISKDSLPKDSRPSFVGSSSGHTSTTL

For CXCR1 (from UniProt P25024), the Kd with IL-8 (Homo sapiens) [1] is 5 nM.
For the substance CXCR2 (from UniProt P25025), the Kd in the series with IL-8 (Homo sapiens) [2] is 2.5 nM.
